The values that follow come from publication PMC8060857.

This assay addresses HR-N1, SARS S protein amino acids 882-973 (SARS-CoV (Urbani strain)) (UniProt P59594). In words: AUC.

For the substance “HR-N1, SARS S protein amino acids 882-973 (from UniProt P59594 882-973) (domain or fragment)”, the stoichiometry N came to 4.
